Data published in patent publication US20100093619A1.

Legend:
Test in all cases: cell-based or functional assay
[1] = biological target: cysteine-like cathepsin-L protease activity from Acyrthosiphon pisum (pea aphid) extracts (Acyrthosiphon pisum)
[2] = biological target: serine-like trypsin protease activity from Ostrinia nubilalis (European corn borer) gut extracts (Ostrinia nubilalis)
[3] = biological target: cysteine-like cathepsin-B protease activity from Leptinotarsa decemlineata (Colorado potato beetle) gut extracts (Leptinotarsa decemlineata)
[4] = biological target: serine-like chymotrypsin protease activity from Sesamia nonagrioides (Mediterranean corn borer) gut extracts (Sesamia nonagrioides)
[5] = biological target: cysteine-like cathepsin-L protease activity from Leptinotarsa decemlineata (Colorado potato beetle) gut extracts (Leptinotarsa decemlineata)
[6] = biological target: serine-like trypsin protease activity from Sesamia nonagrioides (Mediterranean corn borer) gut extracts (Sesamia nonagrioides)
[7] = biological target: cysteine-like cathepsin-L protease activity from Tetranychus urticae (spider mite) extracts (Tetranychus urticae)
[8] = biological target: cysteine-like cathepsin-B protease activity from Acyrthosiphon pisum (pea aphid) extracts (Acyrthosiphon pisum)
[9] = biological target: cysteine-like cathepsin-L protease activity from Bemisia tabaci (sweetpotato whitefly) extracts (Bemisia tabaci)
[10] = biological target: serine-like chymotrypsin protease activity from Spodoptera littoralis (cotton leafworm) gut extracts (Spodoptera littoralis)
[11] = biological target: serine-like trypsin protease activity from Spodoptera littoralis (cotton leafworm) gut extracts (Spodoptera littoralis)
[12] = biological target: cysteine-like cathepsin-L protease activity from Tribolium castaneum (red flour beetle) extracts (Tribolium castaneum)

- % Inhibition of cathepsin L activity at 1.25 µM AtSerpin1 [1]: 42%
- % Inhibition of cathepsin L activity at 5 µM AtSerpin1 [1]: 42%
- % Inhibition of cathepsin L activity at 10 µM AtSerpin1 [1]: 39%
- plateau of % inhibition of cathepsin-L activity (FIG. 14) [1]: 60%
- % Inhibition of trypsin activity at 2 µM AtSerpin1 [2]: 28%
- % Inhibition of cathepsin B activity at 1.25 µM AtSerpin1 [3]: 40%
- % Inhibition of cathepsin B activity at 5 µM AtSerpin1 [3]: 47%
- % Inhibition of cathepsin B activity at 10 µM AtSerpin1 [3]: 46%
- concentration of AtSerpin1 for 50% inhibition of cathepsin-B activity (fluorometric substrate, FIG. 12) [3]: > 10 µM
- concentration of AtSerpin1 for ≧50% inhibition of chymotrypsin activity (FIG. 11) [4]: > 10 µM
- % Inhibition of cathepsin L activity at 1.25 µM AtSerpin1 [5]: 4%
- % Inhibition of cathepsin L activity at 5 µM AtSerpin1 [5]: 34%
- % Inhibition of cathepsin L activity at 10 µM AtSerpin1 [5]: 48%
- concentration of AtSerpin1 for 50% inhibition of cathepsin-L activity (fluorometric substrate, FIG. 12) [5]: > 10 µM
- % Inhibition of trypsin activity at 1.25 µM AtSerpin1 [6]: 90%
- % Inhibition of trypsin activity at 5 µM AtSerpin1 [6]: 97%
- % Inhibition of trypsin activity at 10 µM AtSerpin1 [6]: 98%
- concentration of AtSerpin1 for 50% inhibition of trypsin activity (FIG. 11) [6]: 0.1 µM
- concentration of AtSerpin1 for 50% inhibition of cathepsin-L activity (FIG. 16) [7]: 2 µM
- % Inhibition of cathepsin B activity at 1.25 µM AtSerpin1 [8]: 50%
- % Inhibition of cathepsin B activity at 5 µM AtSerpin1 [8]: 55%
- % Inhibition of cathepsin B activity at 10 µM AtSerpin1 [8]: 55%
- concentration of AtSerpin1 for 50% inhibition of cathepsin-B activity (FIG. 14) [8]: 1 µM
- % inhibition of cathepsin-L activity at 20 µM AtSerpin1 (FIG. 15) [9]: 45%
- % Inhibition of chymotrypsin activity at 1.25 µM AtSerpin1 [10]: 10%
- % Inhibition of chymotrypsin activity at 5 µM AtSerpin1 [10]: 31%
- % Inhibition of chymotrypsin activity at 10 µM AtSerpin1 [10]: 40%
- concentration of AtSerpin1 for 50% inhibition of chymotrypsin activity (FIG. 10) [10]: 10 to 20 µM
- % Inhibition of trypsin activity at 1.25 µM AtSerpin1 [11]: 52%
- % Inhibition of trypsin activity at 5 µM AtSerpin1 [11]: 83%
- % Inhibition of trypsin activity at 10 µM AtSerpin1 [11]: 90%
- concentration of AtSerpin1 for 50% inhibition of trypsin activity (fluorometric substrate, FIG. 10) [11]: 1 µM
- IC50 of inhibition of cathepsin-L activity (FIG. 13) [12]: 4 µM
B1: recombinant AtSerpin1 (Arabidopsis thaliana serpin-1, At1g47710), HIS6-tagged (protein, not shown: small tags and cut ends)
chain: MDVRESISLQNQVSMNLAKHVITTVSQNSNVIFSPASINVVLSIIAAGSAGATKDQILSFLKFSSTDQLNSFSSEIVSAVLADGSANGGPKLSVANGAWIDKSLSFKPSFKQLLEDSYKAASNQADFQSKAVEVIAEVNSWAEKETNGLITEVLPEGSADSMTKLIFANALYFKGTWNEKFDESLTQEGEFHLLDGNKVTAPFMTSKKKQYVSAYDGFKVLGLPYLQGQDKRQFSMYFYLPDANNGLSDLLDKIVSTPGFLDNHIPRRQVKVREFKIPKFKFSFGFDASNVLKGLGLTSPFSGEEGLTEMVESPEMGKNLCVSNIFHKACIEVNEEGTEAAAASAGVIKLRGLLMEEDEIDFVADHPFLLVVTENITGVVLFIGQVVDPLH
